Laboratory results reported in publication PMC2613574.

What was measured:
[1] = target: FNfn10 wild-type N fragment displayed on the yeast surface (Aga2p fusion, FLAG tag) (human); assay: flow cytometry on cells
[2] = target: FNfn10 ND7N fragment displayed on the yeast surface (Aga2p fusion, FLAG tag) (human); assay: flow cytometry on cells

log(B/E ratio) [1] | Kd [2] [nM] | Substance
1.3 | – | FNfn10 C fragment, wild type, co-secreted in yeast (V5 tag) (domain or fragment)
– | 25.3 | ubiquitin fusion of the FNfn10 C fragment with the V5 tag (domain or fragment)
